Values of other authors as cited in PMC5035964.

Tests used:
CD46 (Homo sapiens) = CD46 (Homo sapiens) (UniProt P15529)
Nectin-4 (Homo sapiens) = Nectin-4 (Homo sapiens) (UniProt Q96NY8)
SLAMF1 (Homo sapiens) = SLAMF1 (Homo sapiens) (UniProt Q13291)
Sequence of UniProt Q13291 (Q13291 21-335): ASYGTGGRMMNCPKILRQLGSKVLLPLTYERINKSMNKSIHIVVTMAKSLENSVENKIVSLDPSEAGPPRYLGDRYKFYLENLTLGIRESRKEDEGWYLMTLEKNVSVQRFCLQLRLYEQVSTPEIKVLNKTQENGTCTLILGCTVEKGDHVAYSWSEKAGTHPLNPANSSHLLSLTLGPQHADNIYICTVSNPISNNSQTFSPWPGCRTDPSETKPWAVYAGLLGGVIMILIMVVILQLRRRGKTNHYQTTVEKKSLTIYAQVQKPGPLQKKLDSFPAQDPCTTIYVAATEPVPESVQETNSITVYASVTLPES

Sequence of UniProt P15529 (P15529 35-392): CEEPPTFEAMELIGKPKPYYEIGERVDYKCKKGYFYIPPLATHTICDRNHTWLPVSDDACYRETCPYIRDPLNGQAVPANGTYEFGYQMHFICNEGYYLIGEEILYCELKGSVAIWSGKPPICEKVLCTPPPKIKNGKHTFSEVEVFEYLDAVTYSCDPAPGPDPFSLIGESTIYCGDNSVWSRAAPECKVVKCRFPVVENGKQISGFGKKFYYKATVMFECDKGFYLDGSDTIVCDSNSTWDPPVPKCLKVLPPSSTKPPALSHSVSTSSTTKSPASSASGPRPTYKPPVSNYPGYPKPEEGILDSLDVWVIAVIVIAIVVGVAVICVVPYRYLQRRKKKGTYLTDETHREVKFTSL
Sequence of UniProt Q96NY8 (Q96NY8 32-510): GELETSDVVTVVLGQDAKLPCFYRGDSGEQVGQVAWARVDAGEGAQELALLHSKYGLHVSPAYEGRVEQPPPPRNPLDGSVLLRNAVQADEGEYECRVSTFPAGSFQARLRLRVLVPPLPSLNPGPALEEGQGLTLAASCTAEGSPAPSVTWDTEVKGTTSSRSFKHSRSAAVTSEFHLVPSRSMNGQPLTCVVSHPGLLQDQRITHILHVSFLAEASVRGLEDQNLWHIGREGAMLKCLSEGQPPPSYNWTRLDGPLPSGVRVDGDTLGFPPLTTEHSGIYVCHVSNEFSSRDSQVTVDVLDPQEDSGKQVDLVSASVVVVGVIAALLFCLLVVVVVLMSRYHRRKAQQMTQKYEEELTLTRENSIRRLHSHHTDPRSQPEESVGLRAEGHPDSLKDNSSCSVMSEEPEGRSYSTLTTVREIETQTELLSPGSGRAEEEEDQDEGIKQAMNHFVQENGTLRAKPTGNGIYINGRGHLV

Substance | Kd (CD46 (Homo sapiens)) [µM] | Kd (Nectin-4 (Homo sapiens)) [µM] | Kd (SLAMF1 (Homo sapiens)) [µM]
Measles virus hemagglutinin (H), Edmonston (from UniProt P08362) | 0.079 | – | –
Measles virus hemagglutinin (H) (from UniProt P08362) | – | 0.02 | 0.08
